Values quoted from earlier work as cited in paper PMC8688582.

Biological target: CD25 (Homo sapiens) (UniProt P01589)
Test: ITC

Chain of UniProt P01589 (P01589 22-240): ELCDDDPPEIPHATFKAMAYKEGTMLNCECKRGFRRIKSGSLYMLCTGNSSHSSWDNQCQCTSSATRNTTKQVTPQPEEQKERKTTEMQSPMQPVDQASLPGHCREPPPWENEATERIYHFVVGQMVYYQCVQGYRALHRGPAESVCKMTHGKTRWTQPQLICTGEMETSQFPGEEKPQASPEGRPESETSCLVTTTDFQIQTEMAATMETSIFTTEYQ

IL-2 (from UniProt P60568)
Kd: 10 nM
